In test [1] the target is human CGRP receptor (human, UniProt Q16602 23-461; O60894 27-148). The test is described as follows: cell-based or functional assay.
Test [2] has as its target T1, human PAC1 receptor (human, UniProt P41586 21-468).
T1 sequence: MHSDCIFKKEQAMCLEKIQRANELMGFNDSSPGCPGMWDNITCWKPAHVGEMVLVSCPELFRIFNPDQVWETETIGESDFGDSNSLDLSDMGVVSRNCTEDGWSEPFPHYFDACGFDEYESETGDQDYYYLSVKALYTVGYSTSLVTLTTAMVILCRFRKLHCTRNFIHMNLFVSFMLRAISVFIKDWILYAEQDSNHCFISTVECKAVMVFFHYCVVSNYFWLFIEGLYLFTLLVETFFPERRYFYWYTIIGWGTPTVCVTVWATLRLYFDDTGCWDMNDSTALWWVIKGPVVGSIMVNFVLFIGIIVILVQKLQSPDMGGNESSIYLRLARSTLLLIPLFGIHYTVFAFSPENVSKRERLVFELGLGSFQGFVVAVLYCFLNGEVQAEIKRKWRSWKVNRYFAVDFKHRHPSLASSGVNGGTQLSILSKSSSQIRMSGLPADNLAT
The experiment in a line: cell-based or functional assay.

These results are taken from patent publication US20170306033A1 (Amgen, published 2017).

human CGRP receptor, sequence (Q16602 23-461 limits assumed, chain 1 of 2): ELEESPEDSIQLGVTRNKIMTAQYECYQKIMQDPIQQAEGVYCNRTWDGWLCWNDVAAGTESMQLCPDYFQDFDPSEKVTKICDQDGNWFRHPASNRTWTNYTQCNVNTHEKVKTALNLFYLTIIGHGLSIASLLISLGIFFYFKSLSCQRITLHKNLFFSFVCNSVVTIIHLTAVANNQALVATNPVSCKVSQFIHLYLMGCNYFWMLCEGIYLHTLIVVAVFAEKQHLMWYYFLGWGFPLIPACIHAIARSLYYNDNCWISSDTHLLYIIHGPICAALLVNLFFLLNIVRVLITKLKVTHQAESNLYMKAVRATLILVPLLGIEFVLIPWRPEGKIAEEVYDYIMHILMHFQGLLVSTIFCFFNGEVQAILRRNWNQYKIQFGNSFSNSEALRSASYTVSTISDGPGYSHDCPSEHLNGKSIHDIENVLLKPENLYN
human CGRP receptor, sequence (O60894 27-148 limits assumed, chain 2 of 2): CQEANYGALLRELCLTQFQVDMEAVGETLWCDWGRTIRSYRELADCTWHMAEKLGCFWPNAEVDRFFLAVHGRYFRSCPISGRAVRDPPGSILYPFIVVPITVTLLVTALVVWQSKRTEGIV

B1: iPS:327286 (bispecific antibody, human IgG1, kappa, lambda, N297G)
light 1: DIQLTQSPSFLSASVGDRVTITCRASQSIGRSLHWYQQKPGKAPKLLIKYASQSLSGVPSRFSGSGSGTEFTLTISSLQPEDFATYYCHQSSRLPFTFGEGTKVDIKRTVAAPSVFIFPPSDEQLKSGTASVVCLLNNFYPREAKVQWKVDNALQSGNSQESVTEQDSKDSTYSLESTLTLSKADYEKHKVYACEVTHQGLSSPVTKSFNRGEC
heavy 1: not shown
light 2: QSVLTQPPSVSAAPGQKVTISCSGSSSNIGNNYVSWYQQLPGTAPKLLIYDNNKRPSGIPDRFSGSKSGTSTTLGITGLQTGDEADYYCGTWDSRLSAVVFGKGTKLTVLGQPKANPTVTLFPPSSEELQANKATLVCLISDFYPGAVTVAWKADGSPVKAGVETTKPSKQSNNKYAAKSYLSLTPEQWKSHRSYSCQVTHEGSTVEKTVAPTECS
heavy 2: QVQLVESGGGVVQPGRSLRLSCAASGFTFSSFGMHWVRQAPGKELEWVAVISFDGSIKYSVDSVKGRFTISRDNSKNTLFLQMNSLRAEDTAVYYCARDRLNYYDSSGYYHYKYYGMAVWGQGTTVTVSSASTKGPSVFPLAPSSKSTSGGTAALGCLVKDYFPEPVTVSWNSGALTSGVHTFPAVLQSSGLYSLESVVTVPSSSLGTQTYICNVNHKPSNTKVDKKVEPKSCDKTHTCPPCPAPELLGGPSVFLFPPKPKDTLMISRTPEVTCVVVDVSHEDPEVKFNWYVDGVEVHNAKTKPCEEQYGSTYRCVSVLTVLHQDWLNGKEYKCKVSNKALPAPIEKTISKAKGQPREPQVYTLPPSRKEMTKNQVSLTCLVKGFYPSDIAVEWESNGQPENNYKTTPPVLKSDGSFFLYSKLTVDKSRWQQGNVFSCSVMHEALHNHYTQKSLSLSPGK
Consider B1, for which the “% inhibition of human CGRPR” value in test [1] worked out at 85%. For the same molecule, in test [2], the “% inhibition of human PAC1” value amounted to 23%.

B2: iPS:327281 (bispecific antibody, human IgG1, kappa, lambda, N297G)
light 1: not shown
heavy 1: not shown
light 2: QSVLTQPPSVSAAPGQKVTISCSGSSSNIGNNYVSWYQQLPGTAPKLLIYDNNKRPSGIPDRFSGSKSGTSTTLGITGLQTGDEADYYCGTWDSRLSAVVFGGGTKLTVLGQPKANPTVTLFPPSSEELQANKATLVCLISDFYPGAVTVAWKADGSPVKAGVETTKPSKQSNNKYAAKSYLSLTPEQWKSHRSYSCQVTHEGSTVEKTVAPTECS
heavy 2: QVQLVESGGGVVQPGRSLRLSCAASGFTFSSFGMHWVRQAPGKGLEWVAVISFDGSIKYSVDSVKGRFTISRDNSKNTLFLQMNSLRAEDTAVYYCARDRLNYYDSSGYYHYKYYGMAVWGQGTTVTVSSASTKGPSVFPLAPSSKSTSGGTAALGCLVKDYFPEPVTVSWNSGALTSGVHTFPAVLQSSGLYSLESVVTVPSSSLGTQTYICNVNHKPSNTKVDKKVEPKSCDKTHTCPPCPAPELLGGPSVFLFPPKPKDTLMISRTPEVTCVVVDVSHEDPEVKFNWYVDGVEVHNAKTKPCEEQYGSTYRCVSVLTVLHQDWLNGKEYKCKVSNKALPAPIEKTISKAKGQPREPQVYTLPPSRKEMTKNQVSLTCLVKGFYPSDIAVEWESNGQPENNYKTTPPVLKSDGSFFLYSKLTVDKSRWQQGNVFSCSVMHEALHNHYTQKSLSLSPGK
With B2, the “% inhibition of human CGRPR” value in test [1] came out at 82%. The “% inhibition of human PAC1” value in test [2] stood at 50%.

B3: iPS:327679 (bispecific antibody, human IgG1, kappa, N297G)
light 1: DIQLTQSPSFLSASVGDRVTITCRASQSIGRSLHWYQQKPGKAPKLLIKYASQSLSGVPSRFSGSGSGTEFTLTISSLQPEDFATYYCHQSSRLPFTFGPGTKVDIKRTVAAPSVFIFPPSDEQLKSGTASVVCLLNNFYPREAKVQWKVDNALQSGNSQESVTEQDSKDSTYSLESTLTLSKADYEKHKVYACEVTHQGLSSPVTKSFNRGEC
heavy 1: not shown
light 2: EIVLTQSPGTLSLSPGERATLSCRASQSVSSGYLTWYQQKPGQAPRLLIYGASSRATGIPDRFSGSGSGTDFTLTISRLEPEDFAVYYCQQYGNSLSRFGQGTKLEIKRTVAAPSVFIFPPSDEQLKSGTASVVCLLNNFYPREAKVQWKVDNALQSGNSQESVTEQDSKDSTYSLKSTLTLSKADYEKHKVYACEVTHQGLSSPVTKSFNRGEC
heavy 2: not shown
With B3, the “% inhibition of human CGRPR” value in test [1] stood at 86%. Further, the “% inhibition of human PAC1” value in test [2] stood at 23%.

B4: iPS:327287 (bispecific antibody, human IgG1, kappa, lambda, N297G)
light 1: EIVLTQSPATLSLSPGERATLSCRASQSVGRSLHWYQQKPGQAPRLLIKYASQSLSGIPARFSGSGSGTDFTLTISSLEPEDFAVYYCHQSSRLPFTFGEGTKVDIKRTVAAPSVFIFPPSDEQLKSGTASVVCLLNNFYPREAKVQWKVDNALQSGNSQESVTEQDSKDSTYSLESTLTLSKADYEKHKVYACEVTHQGLSSPVTKSFNRGEC
heavy 1: not shown
light 2: QSVLTQPPSVSAAPGQKVTISCSGSSSNIGNNYVSWYQQLPGTAPKLLIYDNNKRPSGIPDRFSGSKSGTSTTLGITGLQTGDEADYYCGTWDSRLSAVVFGKGTKLTVLGQPKANPTVTLFPPSSEELQANKATLVCLISDFYPGAVTVAWKADGSPVKAGVETTKPSKQSNNKYAAKSYLSLTPEQWKSHRSYSCQVTHEGSTVEKTVAPTECS
heavy 2: QVQLVESGGGVVQPGRSLRLSCAASGFTFSSFGMHWVRQAPGKELEWVAVISFDGSIKYSVDSVKGRFTISRDNSKNTLFLQMNSLRAEDTAVYYCARDRLNYYDSSGYYHYKYYGMAVWGQGTTVTVSSASTKGPSVFPLAPSSKSTSGGTAALGCLVKDYFPEPVTVSWNSGALTSGVHTFPAVLQSSGLYSLESVVTVPSSSLGTQTYICNVNHKPSNTKVDKKVEPKSCDKTHTCPPCPAPELLGGPSVFLFPPKPKDTLMISRTPEVTCVVVDVSHEDPEVKFNWYVDGVEVHNAKTKPCEEQYGSTYRCVSVLTVLHQDWLNGKEYKCKVSNKALPAPIEKTISKAKGQPREPQVYTLPPSRKEMTKNQVSLTCLVKGFYPSDIAVEWESNGQPENNYKTTPPVLKSDGSFFLYSKLTVDKSRWQQGNVFSCSVMHEALHNHYTQKSLSLSPGK
Turning to B4, the “% inhibition of human CGRPR” value in test [1] worked out at 86%. The “% inhibition of human PAC1” value in test [2] was 71%.

B5: iPS:327288 (bispecific antibody, human IgG1, kappa, lambda, N297G)
light 1: not shown
heavy 1: not shown
light 2: QSVLTQPPSVSAAPGQKVTISCSGSSSNIGNNYVSWYQQLPGTAPKLLIYDNNKRPSGIPDRFSGSKSGTSTTLGITGLQTGDEADYYCGTWDSRLSAVVFGGGTKLTVLGQPKANPTVTLFPPSSEELQANKATLVCLISDFYPGAVTVAWKADGSPVKAGVETTKPSKQSNNKYAAKSYLSLTPEQWKSHRSYSCQVTHEGSTVEKTVAPTECS
heavy 2: QVQLVESGGGVVQPGRSLRLSCAASGFTFSSFGMHWVRQAPGKGLEWVAVISFDGSIKYSVDSVKGRFTISRDNSKNTLFLQMNSLRAEDTAVYYCARDRLNYYDSSGYYHYKYYGMAVWGQGTTVTVSSASTKGPSVFPLAPSSKSTSGGTAALGCLVKDYFPEPVTVSWNSGALTSGVHTFPAVLQSSGLYSLESVVTVPSSSLGTQTYICNVNHKPSNTKVDKKVEPKSCDKTHTCPPCPAPELLGGPSVFLFPPKPKDTLMISRTPEVTCVVVDVSHEDPEVKFNWYVDGVEVHNAKTKPCEEQYGSTYRCVSVLTVLHQDWLNGKEYKCKVSNKALPAPIEKTISKAKGQPREPQVYTLPPSRKKMTKNQVSLTCLVKGFYPSDIAVEWESNGQPENNYKTTPPVLKSDGSFFLYSKLTVDKSRWQQGNVFSCSVMHEALHNHYTQKSLSLSPGK
As to B5, in test [1], the “% inhibition of human CGRPR” value amounted to 67%. Besides, in test [2], the “% inhibition of human PAC1” value was found to be 88%.
